Entries after “also recorded” stand apart in the source; their conditions may differ.
Assays:
[1] = Solubility observed in aqueous enzyme assay mixtures; format: physicochemical; settings: aqueous assay mixture, in words
Protocol: The FMT activity assay contained 100 mM MOPS pH 6.8, 1 mM dithiothreitol (DTT), 1 mM feruloyl-CoA, 1 mM coniferyl alcohol, 3.9 μg of purified FMT protein and deionized water to a volume of 50 μL. After a 30-minute incubation, 1 μL of 10 M hydrochloric acid was added to stop the reaction. Because the product synthesized in the reaction, coniferyl ferulate (CAFA), is insoluble, 50 μL of methanol was added to solubilize the CAFA. Prior to UPLC, protein and insoluble material were removed by filtering through an Amicon Ultracel 10K membrane filter (Millipore). The flow-through was analyzed using an Acquity Ultra Performance LC with an Acquity UPLC BEH C18 1.7 μm 2.1×100 mm column and the Acquity Console and Empower 2 Software, all from Waters Corporation. The solvents used in this method were solvent A, 0.1% trifluoroacetic acid, and solvent B, 100% acetonitrile. Samples were analyzed using the following gradient conditions, 13% B, for 5 minutes, 1 minute linear gradient to 42% B, held for 4 minutes, 1 minute linear gradient to 100% B, held for 1 minutes and 3 minutes at 13% B with a flow rate of 0.3 ml/minute. This method was then used to analyze a 10 μL injection of each assay reaction; standards for each of the substrates along with chemically synthesized CAFA were used to determine retention times for each compound. […]

[2] = system: feruloyl-CoA:monolignol transferase (FMT); experiment: FMT enzymatic assay (UPLC detection of product); format: biochemical, Angelica sinensis; settings: for Product formed by FMT from CoA thioester: CoA thioester as acyl donor, coniferyl alcohol as acceptor; for FMT activity with monolignol: monolignol as acyl acceptor, feruloyl-CoA as donor
Protocol: The FMT activity assay contained 100 mM MOPS pH 6.8, 1 mM dithiothreitol (DTT), 1 mM feruloyl-CoA, 1 mM coniferyl alcohol, 3.9 μg of purified FMT protein and deionized water to a volume of 50 μL. After a 30-minute incubation, 1 μL of 10 M hydrochloric acid was added to stop the reaction. Because the product synthesized in the reaction, coniferyl ferulate (CAFA), is insoluble, 50 μL of methanol was added to solubilize the CAFA. Prior to UPLC, protein and insoluble material were removed by filtering through an Amicon Ultracel 10K membrane filter (Millipore). The flow-through was analyzed using an Acquity Ultra Performance LC with an Acquity UPLC BEH C18 1.7 μm 2.1×100 mm column and the Acquity Console and Empower 2 Software, all from Waters Corporation. The solvents used in this method were solvent A, 0.1% trifluoroacetic acid, and solvent B, 100% acetonitrile. Samples were analyzed using the following gradient conditions, 13% B, for 5 minutes, 1 minute linear gradient to 42% B, held for 4 minutes, 1 minute linear gradient to 100% B, held for 1 minutes and 3 minutes at 13% B with a flow rate of 0.3 ml/minute. This method was then used to analyze a 10 μL injection of each assay reaction; standards for each of the substrates along with chemically synthesized CAFA were used to determine retention times for each compound. Purified recombinant enzyme was assayed for FMT activity using a reaction mixture containing 2 mM coniferyl alcohol, […], 100 mM HEPES pH 7.4 and 1 mM DTT. The second most abundant BAHD acyltransferase gene when incubated with Coniferyl alcohol and feruloyl-CoA produced a compound with the retention time of authentic coniferyl ferulate (CAFA) (FIG. 2). […] The addition of methanol to 50% after stopping the enzyme with acid was required to analyze the product by UPLC. The insolubility of the product made partial purification easy as the product was separated from the substrates by centrifugation.

OsPMT = molecular target: T1, OsPMT (Oryza sativa subsp. japonica, UniProt Q5JNT2); experiment: OsPMT kinetic assay (CoASH release detected with DTNB at A412); format: biochemical; settings: for Substrate quality as acyl donor for OsPMT: tested acyl donors, in words
T1 construct: 6xHis (N); made in house; host or cells: E. coli BL21
T1 sequence (Q5JNT2 1-439): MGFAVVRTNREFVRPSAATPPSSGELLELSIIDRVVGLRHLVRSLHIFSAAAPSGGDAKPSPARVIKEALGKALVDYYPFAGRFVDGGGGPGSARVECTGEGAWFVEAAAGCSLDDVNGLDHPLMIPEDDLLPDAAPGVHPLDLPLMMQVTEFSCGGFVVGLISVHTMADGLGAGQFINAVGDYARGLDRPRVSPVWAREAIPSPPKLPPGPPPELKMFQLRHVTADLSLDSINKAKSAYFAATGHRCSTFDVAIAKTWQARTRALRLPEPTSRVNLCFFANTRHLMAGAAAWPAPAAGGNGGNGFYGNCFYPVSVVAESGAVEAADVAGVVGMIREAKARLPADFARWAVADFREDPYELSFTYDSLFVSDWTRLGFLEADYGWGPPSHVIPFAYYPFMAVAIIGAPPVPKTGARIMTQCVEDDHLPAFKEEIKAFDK
Protocol: (§1) Kinetics—Kinetic analyses were performed using an assay modified from Santoro et al. (Anal. Biochem. 354: 70-77 (2006)). The standard 100 μL reaction mixture contained 50 mM sodium phosphate pH 6, 2 mM 5,5′-dithiobis-(2-nitrobenzoic acid) (DTNB), 0.01-1 mM CoA thioester substrate, and 0.005-1.0 mM monolignol alcohol substrate and initiated by adding 100 ng of purified OsPMT protein in 1×BSA (NEB). The CoA thioester substrates included p-coumaroyl-CoA 2a and caffeoyl-CoA 2b, and the monolignol substrates included sinapyl alcohol 1S and p-coumaryl alcohol 1H. Enzyme activity was measured as an increase in CoASH, detected with DTNB at A412, which is released as a result of monolignol conjugate synthesis (id.). The absorbance was measured every three min. for 40 min on a Spectramax Plus microplate reader using Softmax Pro 5.3 (Molecular Devices). The reactions were stopped by adding hydrochloric acid to a concentration of 100 mM, and then solubilized by adding methanol to 50%. Aliquots of 10 μL from each assay were analyzed via UPLC to verify product production. A standard curve was created for each CoA thioester from triplicate assays of five concentrations from 50 nM to 1 mM of coenzyme-A. Each reaction contained the same buffer and DTNB concentrations as the kinetic assays, along with 0.5 mM of a CoA thioester (p-coumaroyl-CoA 2a, caffeoyl-CoA 2b, or feruloyl-CoA 2c). The equation derived from fitting this standard curve was used to calculate the quantity (moles) of product synthesized in the assay. Kinetic parameters, Vmax and Km, were calculated using a nonlinear regression by entering the reaction rate and substrate concentration into the program R64, version 2.12.0 (Team, R. D. C., R: A language and environment for statistical computing, R Foundation for Statistical Computing, Vienna, Austria (2010).

[3] = substrate: OC/C=C/c1ccc(O)cc1; experiment: as above; format: biochemical, Oryza sativa; settings: other: varying substrate, pH 6.0
Protocol: as §1

[4] = substrate: COc1cc(/C=C/CO)cc(OC)c1O; experiment: as above; format: biochemical, Oryza sativa; settings: other: varying substrate, pH 6.0
Protocol: as §1

[5] = substrate: CC(C)(COP(=O)(O)OP(=O)(O)OC[C@H]1O[C@@H](n2cnc3c(N)ncnc32)[C@H](O)[C@@H]1OP(=O)(O)O)[C@@H](O)C(=O)NCCC(=O)NCCSC(=O)/C=C/c1ccc(O)cc1; experiment: as above; format: biochemical, Oryza sativa; settings: other: varying substrate, pH 6.0
Protocol: as §1

[6] = substrate: CC(C)(COP(=O)(O)OP(=O)(O)OC[C@H]1O[C@@H](n2cnc3c(N)ncnc32)[C@H](O)[C@@H]1OP(=O)(O)O)[C@@H](O)C(=O)NCCC(=O)NCCSC(=O)/C=C/c1ccc(O)c(O)c1; experiment: as above; format: biochemical, Oryza sativa; settings: other: varying substrate, pH 6.0
Protocol: as §1

[7] = saturating substrate caffeoyl-CoA 2b
[8] = saturating substrate p-coumaroyl-CoA 2a
[9] = saturating substrate p-coumaryl alcohol 1H
[10] = saturating substrate sinapyl alcohol 1S

For COc1cc(/C=C/COC(=O)/C=C/c2ccc(O)c(OC)c2)ccc1O [coniferyl ferulate], the Solubility [1] was “mostly insoluble in water; also recorded: partially insoluble”.

With OC/C=C/c1ccc(O)c(O)c1 [caffeyl alcohol 1C, caffeyl alcohol] the Solubility [1] was “limited solubility”.

With COc1cc(/C=C/C(=O)SCCNC(=O)CCNC(=O)[C@H](O)C(C)(C)COP(=O)(O)OP(=O)(O)OC[C@H]2O[C@@H](n3cnc4c(N)ncnc43)[C@H](O)[C@@H]2OP(=O)(O)O)ccc1O [feruloyl-CoA 2c, feruloyl-CoA] the “Product formed by FMT from CoA thioester” value [2] was “substantial product” and the “Substrate quality as acyl donor for OsPMT” value (“Substrate quality” below) (OsPMT) was “poor substrate”.

With OC/C=C/c1ccc(O)cc1 [p-coumaryl alcohol 1H, p-coumaryl alcohol] the “FMT activity with monolignol” value [2] was “active” and the “Synthetic rate relative to sinapyl alcohol 1S” value (OsPMT; acyl acceptor compared with sinapyl alcohol 1S) was 6 times.

For CC(C)(COP(=O)(O)OP(=O)(O)OC[C@H]1O[C@@H](n2cnc3c(N)ncnc32)[C@H](O)[C@@H]1OP(=O)(O)O)[C@@H](O)C(=O)NCCC(=O)NCCSC(=O)/C=C/c1ccc(O)cc1 [p-coumaroyl-CoA 2a, p-coumaroyl-CoA], the “Product formed by FMT from CoA thioester” value [2] was “very little product”, the “Maximum reaction rate relative to caffeoyl-CoA 2b” value (OsPMT; acyl donor compared with caffeoyl-CoA 2b) was “at least 5 fold” and the “Substrate quality” value (OsPMT) was “good substrates”.

For COc1cc(/C=C/CO)cc(OC)c1O [sinapyl alcohol 1S, sinapyl alcohol], the “FMT activity with monolignol” value [2] was “active”.

In the case of CC(C)(COP(=O)(O)OP(=O)(O)OC[C@H]1O[C@@H](n2cnc3c(N)ncnc32)[C@H](O)[C@@H]1OP(=O)(O)O)[C@@H](O)C(=O)NCCC(=O)NCCSC(=O)/C=C/c1ccc(O)c(O)c1 [caffeoyl-CoA 2b, caffeoyl-CoA], the “Product formed by FMT from CoA thioester” value [2] is reported as “very little product” and the “Substrate quality” value (OsPMT) is reported as “good substrates”.

With COc1cc(/C=C/CO)ccc1O [coniferyl alcohol 1G, coniferyl alcohol] the “FMT activity with monolignol” value [2] was “active”.

B1: OsPMT (Oryza sativa Japonica Group) (protein)
chain: T1 sequence (Q5JNT2 1-439)
notes: 6xHis (N); made in house; host or cells: E. coli BL21
For B1, the Km [3, 7] was 27 ± 6 µM, the Vmax [3, 7] was 0.355 µmol/min/mg and the kcat [3, 7] was 0.28 s⁻¹. It also gave a Km [3, 8] of 141 ± 14 µM, a Vmax [3, 8] of 3.25 µmol/min/mg and a kcat [3, 8] of 2.58 s⁻¹. It also gave a Km [4, 7] of 15 ± 2 µM, a Vmax [4, 7] of 0.486 µmol/min/mg and a kcat [4, 7] of 0.39 s⁻¹. It also gave a Km [4, 8] of 35 ± 5 µM, a Vmax [4, 8] of 0.648 µmol/min/mg and a kcat [4, 8] of 0.51 s⁻¹. The Km [5, 9] was 281 ± 62 µM, the Vmax [5, 9] was 3.69 µmol/min/mg and the kcat [5, 9] was 2.93 s⁻¹. For the same molecule, the Km [5, 10] was 105 ± 12 µM, the Vmax [5, 10] was 0.75 µmol/min/mg and the kcat [5, 10] was 0.6 s⁻¹. The Km [6, 9] was 92 ± 11 µM, the Vmax [6, 9] was 0.515 µmol/min/mg and the kcat [6, 9] was 0.41 s⁻¹. For the same molecule, the Km [6, 10] was 75 ± 5 µM, the Vmax [6, 10] was 0.45 µmol/min/mg and the kcat [6, 10] was 0.36 s⁻¹.

Reference: patent US10428342B2, “P-coumaroyl-CoA:monolignol transferase” (Wisconsin Alumni Research Foundation, priority 2011, dated 2019)
